Assay results reported in the supplement of paper PMC10201428.
± gives the standard deviation of the averaged measurements.

B1: library; a variant is named by its letters at N, in order (parent)
chain: AATGTTGTTGATGCAACCATAAAGTGATATTTAATAATTATTTATAATCAGCAACTTAACCACAAAACAACCATATATTGATATNTCACAAAACAACCATAANTTGATATTTTTGTGAATCGAGTATTTCAGCAAAACTACTGCAGTAAGAA

Legend:
[1] = variants of: B1; experiment: relative integration efficiency (T-LR orientation) vs wild-type transposon end (log2 (normalized fold change)); transposon end mutated: left end; higher = more efficient transposition; settings: with VchCAST RNA-guided transposition machinery (E. coli BL21(DE3) host, lacZ target)
Procedure: (§1)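 Pooled, barcoded VchCAST (Tn6677) mini-transposon donor libraries; each variable transposon-end sequence sits in a fixed pDonor mini-transposon context (10-bp barcode and cargo not included). Left- or right-end libraries were co-transformed with pEffector (TniQ-Cascade, TnsABC, lacZ crRNA, T7, 0.1 mM IPTG) into E. coli BL21(DE3) and grown 18 h at 37 C. T-LR and T-RL junction amplicons were sequenced; output/input barcode fold change was normalised to the mean of four wild-type barcodes and log2-transformed. Two biological replicates; zero-count/undetected variants carry floor values (-10 / -15), censored here. Barcode uncoupling by PCR recombination adds noise.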

[2] = variants of: B1; experiment: relative integration efficiency (T-RL orientation) vs wild-type transposon end (log2 (normalized fold change)); transposon end mutated: left end; higher = more efficient transposition; settings: with VchCAST RNA-guided transposition machinery (E. coli BL21(DE3) host, lacZ target)
Procedure: as §1

Row | Variant | relative integration efficiency (log2) [1] | relative integration efficiency (log2) [2]
1 | TA A22T G24T T31C A33C T76A T78G C87A A102T T111C T113C | -0.662 ± 0.16 | -0.645 ± 0.14
2 | TA A22T G24T T31C A33C T76A T78G C87A T104A T110A T113A | -0.444 ± 0.45 | -0.395 ± 0.24
3 | TA A22T G24T T31C A33C T76A T78G C87A T104G T113A | -0.379 ± 0.48 | -0.685 ± 0.35
4 | CA A22T G24T T31C A33C T104A T110A T113A | -0.859 ± 0.31 | -0.686 ± 0.34
5 | CA A22T G24T T31C A33C T104G T113A | -0.697 ± 0.046 | -0.629 ± 0.23
6 | TA A23G G24T A33T A70C T76A T84A C87A A96C T110A T113A | 0.218 ± 0.46 | 0.00966 ± 0.38
7 | TA A23G G24T A33T A70C T76A T84A C87A A96C T112G T113C | 0.304 ± 0.89 | 0.137 ± 0.19
8 | TA A23G G24T A33T A70C T76A T84A C87A A102T T111C T113C | -0.166 ± 0.29 | 0.133 ± 0.28
9 | TA A23G G24T A33T A70C T76A T84A C87A T104A T110A T113A | -0.119 ± 0.32 | -0.0493 ± 0.28
10 | TA A23G G24T A33T A70C T76A T84A C87A T104G T113A | -0.16 ± 0.29 | -0.158 ± 0.26
11 | TA A23G G24T A33T A70C T76A T86G A96C T110A T113A | 0.0515 ± 0.56 | 0.0613 ± 0.44
12 | TA A23G G24T A33T A70C T76A T86G A96C T112G T113C | -0.361 ± 0.74 | -0.338 ± 0.051
13 | TA A23G G24T A33T A70C T76A T86G A102T T111C T113C | -0.846 ± 0.11 | -0.375 ± 0.19
14 | TA A23G G24T A33T A70C T76A T86G T104A T110A T113A | -0.032 ± 0.14 | -0.568 ± 0.3
15 | TA A23G G24T A33T A70C T76A T86G T104G T113A | 0.529 ± 0.03 | -0.0666 ± 0.38
16 | CA A23G G24T A33T A96C T110A T113A | -0.448 ± 0.74 | -0.516 ± 0.28
17 | CA A23G G24T A33T A96C T112G T113C | -0.242 ± 0.57 | -0.198 ± 0.26
18 | CA A23G G24T A33T A102T T111C T113C | -0.354 ± 0.18 | -0.967 ± 0.39
19 | TA A23G G24T A33T T76A A77G C87T A96C T110A T113A | -0.603 ± 0.67 | -0.516 ± 0.48
20 | TA A23G G24T A33T T76A A77G C87T A96C T112G T113C | -0.402 ± 0.62 | -0.2 ± 0.18
21 | TA A23G G24T A33T T76A A77G C87T A102T T111C T113C | -0.439 ± 0.39 | -0.836 ± 0.54
22 | TA A23G G24T A33T T76A A77G C87T T104A T110A T113A | 0.0613 ± 0.2 | -0.917 ± 0.47
23 | TA A23G G24T A33T T76A A77G C87T T104G T113A | 0.309 ± 0.37 | -0.339 ± 0.36
24 | TA A23G G24T A33T T76A T78A T84A C87A A96C T110A T113A | 0.43 ± 0.2 | 0.182 ± 0.35
25 | TA A23G G24T A33T T76A T78A T84A C87A A96C T112G T113C | -0.309 ± 0.24 | 0.136 ± 0.2
26 | TA A23G G24T A33T T76A T78A T84A C87A A102T T111C T113C | -0.26 ± 0.5 | 0.131 ± 0.23
27 | TA A23G G24T A33T T76A T78A T84A C87A T104A T110A T113A | 0.471 ± 0.38 | 0.117 ± 0.25
28 | TA A23G G24T A33T T76A T78A T84A C87A T104G T113A | 0.315 ± 0.39 | -0.265 ± 0.4
29 | TA A23G G24T A33T T76A T78G C87A A96C T110A T113A | 0.938 ± 0.63 | 0.884 ± 0.19
